Measurements reported in IntAct's records for PubMed 19665976.

B1: Atlastin-1 (Homo sapiens), Q8WXF7 (parent)
chain: MAKNRRDRNSWGGFSEKTYEWSSEEEEPVKKAGPVQVLIVKDDHSFELDETALNRILLSEAVRDKEVVAVSVAGAFRKGKSFLMDFMLRYMYNQESVDWVGDYNEPLTGFSWRGGSERETTGIQIWSEIFLINKPDGKKVAVLLMDTQGTFDSQSTLRDSATVFALSTMISSIQVYNLSQNVQEDDLQHLQLFTEYGRLAMEETFLKPFQSLIFLVRDWSFPYEFSYGADGGAKFLEKRLKVSGNQHEELQNVRKHIHSCFTNISCFLLPHPGLKVATNPNFDGKLKEIDDEFIKNLKILIPWLLSPESLDIKEINGNKITCRGLVEYFKAYIKIYQGEELPHPKSMLQATAEANNLAAVATAKDTYNKKMEEICGGDKPFLAPNDLQTKHLQLKEESVKLFRGVKKMGGEEFSRRYLQQLESEIDELYIQYIKHNDSKNIFHAARTPATLFVVIFITYVIAGVTGFIGLDIIASLCNMIMGLTLITLCTWAYIRYSGEYRELGAVIDQVAAALWDQGSTNEALYKLYSAAATHRHLYHQAFPTPKSESTEQSEKKKM
partner: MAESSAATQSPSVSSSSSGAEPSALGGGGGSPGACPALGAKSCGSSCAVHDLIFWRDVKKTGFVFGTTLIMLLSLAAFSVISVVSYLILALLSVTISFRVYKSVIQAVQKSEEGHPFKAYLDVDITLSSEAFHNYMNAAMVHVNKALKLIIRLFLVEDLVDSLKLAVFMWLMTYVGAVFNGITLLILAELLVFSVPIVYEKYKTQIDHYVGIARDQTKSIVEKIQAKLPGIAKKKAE

Variants of: B1
Conditions: with Rtn3, Q9ES97-3

effect of a mutation on the interaction	Variant
decreasing interaction	K80A
